In publication PMC2847151 (Neurogenetics, 2009):
Substitutions are numbered along the chain they refer to. Names and notes keep the numbering of the source.

B1: wildtype: wild-type MED25 protein (ARC92/ACID1); also as GAL4 fusion, full-length clone (1–754) (protein, UniProt Q71SY5 1-747, looked up)
chain: MVPGSEGPARAGSVVADVVFVIEGTANLGPYFEGLRKHYLLPAIEYFNGGPPAETDFGGDYGGTQYSLVVFNTVDCAPESYVQCHAPTSSAYEFVTWLDGIKFMGGGGESCSLIAEGLSTALQLFDDFKKMREQIGQTHRVCLLICNSPPYLLPAVESTTYSGCTTENLVQQIGERGIHFSIVSPRKLPALRLLFEKAAPPALLEPLQPPTDVSQDPRHMVLVRGLVLPVGGGSAPGPLQSKQPVPLPPAAPSGATLSAAPQQPLPPVPPQYQVPGNLSAAQVAAQNAVEAAKNQKAGLGPRFSPITPLQQAAPGVGPPFSQAPAPQLPPGPPGAPKPPPASQPSLVSTVAPGSGLAPTAQPGAPSMAGTVAPGGVSGPSPAQLGAPALGGQQSVSNKLLAWSGVLEWQEKPKPASVDANTKLTRSLPCQVYVNHGENLKTEQWPQKLIMQLIPQQLLTTLGPLFRNSRMVQFHFTNKDLESLKGLYRIMGNGFAGCVHFPHTAPCEVRVLMLLYSSKKKIFMGLIPYDQSGFVNGIRQVITNHKQVQQQKLEQQQRGMGGQQAPPGLGPILEDQARPSQNLLQLRPPQPQPQGTVGASGATGQPQPQGTAQPPPGAPQGPPGAASGPPPPGPILRPQNPGANPQLRSLLLNPPPPQTGVPPPQASLHHLQPPGAPALLPPPHQGLGQPQLGPPLLHPPPAQSWPAQLPPRAPLPGQMLLSGGPRGPVPQPGLQPSVMEDDILMDLI
modifications: full-length also GAL4 fusion
B2: mutant MED25: MED25 protein carrying the p.A335V mutation; also as GAL4 fusion, full-length clone (1–754) (protein, UniProt Q71SY5 1-747, looked up, variant A335V)
chain: B1 chain with A335V
modifications: full-length also GAL4 fusion

Test system: Mediator
Assay: Binding to Mediator upon transfection into HeLa cells
Conditions: wild-type vs mutant

Molecule | binding to Mediator
B1 | bound indistinguishably to Mediator
B2 | bound indistinguishably to Mediator
